B1: LRRC45 (parent)
chain: FQTRQEMTSMSAELKMRAIQAEER
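Note: lentivirally expressed fusions sorted by FACS into six bins by GFP to DsRed ratio, PSI derived from sequencing read proportions per bin multiplied by bin number.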

In this data set the parent is B1. Description: protein stability index of a GFP-peptide fusion (GPS, HEK-293T) (PSI 1-6); higher = more stable. The note with it: c terminus: a fixed tail appended.
On to FQTRQEVTSMSAELKMRAIQAEER [M7V], for which the protein stability index is 3.4. As to FQTRQENTSMSAELKMRAIQAEER [M7N], the protein stability index came out at 3.71.

For FQTRQEYTSMSAELKMRAIQAEER [M7Y], the protein stability index came to 3.31. For FQTRQETTSMSAELKMRAIQAEER [M7T], the protein stability index stood at 4.61. Turning to FQTRQECTSMSAELKMRAIQAEER [M7C], the protein stability index turned out to be 3.6.

On to FQTRQEGTSMSAELKMRAIQAEER [M7G], for which the protein stability index is 3.93. With FQTRQEITSMSAELKMRAIQAEER [M7I], the protein stability index worked out at 3.41.

Regarding FQTRQEHTSMSAELKMRAIQAEER [M7H], the protein stability index was found to be 4.28.

For the variant FQTRQESTSMSAELKMRAIQAEER [M7S], the protein stability index is 4.27. For FQTRQEKTSMSAELKMRAIQAEER [M7K] the value was 4.02. For FQTRQEQTSMSAELKMRAIQAEER [M7Q] the value was 4.14; for FQTRQELTSMSAELKMRAIQAEER [M7L], 3.77.

Consider FQTRQEPTSMSAELKMRAIQAEER [M7P], for which the protein stability index was found to be 3.71. In the case of FQTRQEWTSMSAELKMRAIQAEER [M7W], the protein stability index came to 2.68. For FQTRQEDTSMSAELKMRAIQAEER [M7D], the protein stability index came to 4.64.

FQTRQEATSMSAELKMRAIQAEER [M7A]: the protein stability index came to 4.26. As to FQTRQEETSMSAELKMRAIQAEER [M7E], the protein stability index was determined as 4.57. Regarding FQTRQEFTSMSAELKMRAIQAEER [M7F], the protein stability index turned out to be 3.

Turning to FQTRQERTSMSAELKMRAIQAEER [M7R], the protein stability index amounted to 4.26. For FQTRQEMTSHSAELKMRAIQAEER [M10H] the value was 4.12; for FQTRQEMTSGSAELKMRAIQAEER [M10G], 4.34; for FQTRQEMTSFSAELKMRAIQAEER [M10F], 4.1. For FQTRQEMTSYSAELKMRAIQAEER [M10Y] the value was 3.97; for FQTRQEMTSLSAELKMRAIQAEER [M10L], 4.27. For FQTRQEMTSSSAELKMRAIQAEER [M10S], the protein stability index was 4.1. Take FQTRQEMTSCSAELKMRAIQAEER [M10C]: the protein stability index came to 2.53.

As to FQTRQEMTSKSAELKMRAIQAEER [M10K], the protein stability index worked out at 4.07.

Consider FQTRQEMTSVSAELKMRAIQAEER [M10V], for which the protein stability index worked out at 3.94. On to FQTRQEMTSRSAELKMRAIQAEER [M10R], for which the protein stability index stood at 4.16.

As for FQTRQEMTSQSAELKMRAIQAEER [M10Q], the protein stability index was 4.21. For FQTRQEMTSISAELKMRAIQAEER [M10I], the protein stability index was 3.69. With FQTRQEMTSWSAELKMRAIQAEER [M10W] the figure was 3.07.

For the variant FQTRQEMTSASAELKMRAIQAEER [M10A], the protein stability index is 3.84. For FQTRQEMTSTSAELKMRAIQAEER [M10T] the value was 4.28; for FQTRQEMTSESAELKMRAIQAEER [M10E], 3.51; for FQTRQEMTSDSAELKMRAIQAEER [M10D], 3.98.

On to FQTRQEMTSPSAELKMRAIQAEER [M10P], for which the protein stability index is 4.55. In the case of FQTRQEMTSNSAELKMRAIQAEER [M10N], the protein stability index was determined as 4.14. On to FQTRQEMTSMDAELKMRAIQAEER [S11D], for which the protein stability index was 4.54. Take FQTRQEMTSMLAELKMRAIQAEER [S11L]: the protein stability index was 3.85. Turning to FQTRQEMTSMEAELKMRAIQAEER [S11E], the protein stability index was 3.98.

For the variant FQTRQEMTSMTAELKMRAIQAEER [S11T], the protein stability index came to 3.73. As to FQTRQEMTSMKAELKMRAIQAEER [S11K], the protein stability index turned out to be 3.67. Consider FQTRQEMTSMRAELKMRAIQAEER [S11R], for which the protein stability index was 3.83. Consider FQTRQEMTSMFAELKMRAIQAEER [S11F], for which the protein stability index was 4.22. For FQTRQEMTSMAAELKMRAIQAEER [S11A] the value was 3.88; for FQTRQEMTSMHAELKMRAIQAEER [S11H], 4.43; for FQTRQEMTSMNAELKMRAIQAEER [S11N], 3.92. Consider FQTRQEMTSMPAELKMRAIQAEER [S11P], for which the protein stability index came out at 3.73. Consider FQTRQEMTSMCAELKMRAIQAEER [S11C], for which the protein stability index was 3.63. With FQTRQEMTSMGAELKMRAIQAEER [S11G], the protein stability index was 3.97. For FQTRQEMTSMQAELKMRAIQAEER [S11Q] the value was 4.16. As for FQTRQEMTSMMAELKMRAIQAEER [S11M], the protein stability index came out at 3.68. With FQTRQEMTSMIAELKMRAIQAEER [S11I], the protein stability index stood at 3.09. For FQTRQVMTSMSAELKMRAIQAEER [E6V] the value was 3.11. For the variant FQTRQTMTSMSAELKMRAIQAEER [E6T], the protein stability index was determined as 3.88. Consider FQTRQEMTRMSAELKMRAIQAEER [S9R], for which the protein stability index came to 3.78.

Take FQTRQEMTVMSAELKMRAIQAEER [S9V]: the protein stability index is 3.51. Take FQTRQEMTQMSAELKMRAIQAEER [S9Q]: the protein stability index turned out to be 3.73.

For the variant FQTRQEMTCMSAELKMRAIQAEER [S9C], the protein stability index was 3.41. In the case of FQTRQEMTFMSAELKMRAIQAEER [S9F], the protein stability index was 3.02. For FQTRQEMTYMSAELKMRAIQAEER [S9Y] the value was 3.28; for FQTRQEMTTMSAELKMRAIQAEER [S9T], 3.96. With FQTRQEMTKMSAELKMRAIQAEER [S9K] the figure was 4.32. For the variant FQTRQEMTLMSAELKMRAIQAEER [S9L], the protein stability index came to 4.12. Take FQTRQEMTMMSAELKMRAIQAEER [S9M]: the protein stability index stood at 4.17. In the case of FQTRQEMTNMSAELKMRAIQAEER [S9N], the protein stability index is 4.28.

For the variant FQTRQEMTWMSAELKMRAIQAEER [S9W], the protein stability index is 2.32. As for FQTRQEMTEMSAELKMRAIQAEER [S9E], the protein stability index stood at 4.49.

Turning to FQTRQEMTIMSAELKMRAIQAEER [S9I], the protein stability index stood at 3.58.

For the variant FQTRQEMTHMSAELKMRAIQAEER [S9H], the protein stability index was found to be 3.84. For the variant FQTRQEMTDMSAELKMRAIQAEER [S9D], the protein stability index worked out at 4.05. As to FQTRQEMTAMSAELKMRAIQAEER [S9A], the protein stability index turned out to be 4.43. With FQTRQEMTGMSAELKMRAIQAEER [S9G] the figure was 4.11; with FQTRQEMTPMSAELKMRAIQAEER [S9P], 4.01.

For the variant FQTRQEMNSMSAELKMRAIQAEER [T8N], the protein stability index stood at 3.92. FQTRQEMVSMSAELKMRAIQAEER [T8V]: the protein stability index was determined as 3.76. Turning to FQTRQEMDSMSAELKMRAIQAEER [T8D], the protein stability index is 4.16. For FQTRQEMASMSAELKMRAIQAEER [T8A] the value was 3.85; for FQTRQEMHSMSAELKMRAIQAEER [T8H], 4.38; for FQTRQEMSSMSAELKMRAIQAEER [T8S], 3.72. For FQTRQEMLSMSAELKMRAIQAEER [T8L], the protein stability index came to 3.79. Turning to FQTRQEMMSMSAELKMRAIQAEER [T8M], the protein stability index was 3.47.

In the case of FQTRQEMESMSAELKMRAIQAEER [T8E], the protein stability index was determined as 4.57. In the case of FQTRQEMRSMSAELKMRAIQAEER [T8R], the protein stability index came to 4.26. For FQTRQEMFSMSAELKMRAIQAEER [T8F] the value was 2.19; for FQTRQEMGSMSAELKMRAIQAEER [T8G], 4.33. For FQTRQEMCSMSAELKMRAIQAEER [T8C], the protein stability index came out at 3.11. Consider FQTRQEMISMSAELKMRAIQAEER [T8I], for which the protein stability index was 3.8. Regarding FQTRQEMQSMSAELKMRAIQAEER [T8Q], the protein stability index came out at 4.28.

Take FQTRQEMWSMSAELKMRAIQAEER [T8W]: the protein stability index stood at 1.34. For the variant FQTRQEMPSMSAELKMRAIQAEER [T8P], the protein stability index turned out to be 3.94. Take FQTRQEMYSMSAELKMRAIQAEER [T8Y]: the protein stability index turned out to be 2.69.

In the case of FQTRQEMKSMSAELKMRAIQAEER [T8K], the protein stability index was found to be 3.86.

Values taken from the supplement of paper PMC10567573.
